Experimental data published in article PMC11574045, “A cofactor-induced repressive type of transcription factor condensation can be induced by synthetic peptides to suppress tumorigenesis” (The EMBO Journal, 2024).

B1: TADA2B (protein, UniProt Q86TJ2 1-420, looked up)
Transcriptional adapter 2-beta: MAELGKKYCVYCLAEVSPLRFRCTECQDIELCPECFSAGAEIGHHRRYHGYQLVDGGRFTLWGPEAEGGWTSREEQLLLDAIEQFGFGNWEDMAAHVGASRTPQEVMEHYVSMYIHGNLGKACIPDTIPNRVTDHTCPSGGPLSPSLTTPLPPLDISVAEQQQLGYMPLRDDYEIEYDQDAETLISGLSVNYDDDDVEIELKRAHVDMYVRKLKERQRRKNIARDYNLVPAFLGKDKKEKEKALKRKITKEEKELRLKLRPLYQFMSCKEFDDLFENMHKEKMLRAKIRELQRYRRNGITKMEESAEYEAARHKREKRKENKNLAGSKRGKEDGKDSEFAAIENLPGFELLSDREKVLCSSLNLSPARYVTVKTIIIKDHLQKRQGIPSKSRLPSYLDKVLKKRILNFLTESGWISRDAS
B2: BIF1 (protein, UniProt Q9Y371 1-365, looked up)
Endophilin-B1: MNIMDFNVKKLAADAGTFLSRAVQFTEEKLGQAEKTELDAHLENLLSKAECTKIWTEKIMKQTEVLLQPNPNARIEEFVYEKLDRKAPSRINNPELLGQYMIDAGTEFGPGTAYGNALIKCGETQKRIGTADRELIQTSALNFLTPLRNFIEGDYKTIAKERKLLQNKRLDLDAAKTRLKKAKAAETRNSSEQELRITQSEFDRQAEITRLLLEGISSTHAHHLRCLNDFVEAQMTYYAQCYQYMLDLQKQLGSFPSNYLSNNNQTSVTPVPSVLPNAIGSSAMASTSGLVITSPSNLSDLKECSGSRKARVLYDYDAANSTELSLLADEVITVFSVVGMDSDWLMGERGNQKGKVPITYLELLN
B3: BHLHE41 (protein, UniProt Q9C0J9 1-482, looked up)
Class E basic …: MDEGIPHLQERQLLEHRDFIGLDYSSLYMCKPKRSMKRDDTKDTYKLPHRLIEKKRRDRINECIAQLKDLLPEHLKLTTLGHLEKAVVLELTLKHLKALTALTEQQHQKIIALQNGERSLKSPIQSDLDAFHSGFQTCAKEVLQYLSRFESWTPREPRCVQLINHLHAVATQFLPTPQLLTQQVPLSKGTGAPSAAGSAAAPCLERAGQKLEPLAYCVPVIQRTQPSAELAAENDTDTDSGYGGEAEARPDREKGKGAGASRVTIKQEPPGEDSPAPKRMKLDSRGGGSGGGPGGGAAAAAAALLGPDPAAAAALLRPDAALLSSLVAFGGGGGAPFPQPAAAAAPFCLPFCFLSPSAAAAYVQPFLDKSGLEKYLYPAAAAAPFPLLYPGIPAPAAAAAAAAAAAAAAAAFPCLSSVLSPPPEKAGAAAATLLPHEVAPLGAPHPQHPHGRTHLPFAGPREPGNPESSAQEDPSQPGKEAP
B4: TADA2L (protein, UniProt O75478 1-443, looked up)
Transcriptional adapter …: MDRLGPFSNDPSDKPPCRGCSSYLMEPYIKCAECGPPPFFLCLQCFTRGFEYKKHQSDHTYEIMTSDFPVLDPSWTAQEEMALLEAVMDCGFGNWQDVANQMCTKTKEECEKHYMKHFINNPLFASTLLNLKQAEEAKTADTAIPFHSTDDPPRPTFDSLLSRDMAGYMPARADFIEEFDNYAEWDLRDIDFVEDDSDILHALKMAVVDIYHSRLKERQRRKKIIRDHGLINLRKFQLMERRYPKEVQDLYETMRRFARIVGPVEHDKFIESHALEFELRREIKRLQEYRTAGITNFCSARTYDHLKKTREEERLKRTMLSEVLQYIQDSSACQQWLRRQADIDSGLSPSIPMASNSGRRSAPPLNLTGLPGTEKLNEKEKELCQMVRLVPGAYLEYKSALLNECNKQGGLRLAQARALIKIDVNKTRKIYDFLIREGYITKG
B5: SUV39H1 (protein, UniProt O43463 1-412, looked up)
Histone-lysine …: MAENLKGCSVCCKSSWNQLQDLCRLAKLSCPALGISKRNLYDFEVEYLCDYKKIREQEYYLVKWRGYPDSESTWEPRQNLKCVRILKQFHKDLERELLRRHHRSKTPRHLDPSLANYLVQKAKQRRALRRWEQELNAKRSHLGRITVENEVDLDGPPRAFVYINEYRVGEGITLNQVAVGCECQDCLWAPTGGCCPGASLHKFAYNDQGQVRLRAGLPIYECNSRCRCGYDCPNRVVQKGIRYDLCIFRTDDGRGWGVRTLEKIRKNSFVMEYVGEIITSEEAERRGQIYDRQGATYLFDLDYVEDVYTVDAAYYGNISHFVNHSCDPNLQVYNVFIDNLDERLPRIAFFATRTIRAGEELTFDYNMQVDPVDMESTRMDSNFGLAGLPGSPKKRVRIECKCGTESCRKYLF
B6: STAT5B (protein, UniProt P51692 1-787, looked up)
Signal transducer and …: MAVWIQAQQLQGEALHQMQALYGQHFPIEVRHYLSQWIESQAWDSVDLDNPQENIKATQLLEGLVQELQKKAEHQVGEDGFLLKIKLGHYATQLQNTYDRCPMELVRCIRHILYNEQRLVREANNGSSPAGSLADAMSQKHLQINQTFEELRLVTQDTENELKKLQQTQEYFIIQYQESLRIQAQFGPLAQLSPQERLSRETALQQKQVSLEAWLQREAQTLQQYRVELAEKHQKTLQLLRKQQTIILDDELIQWKRRQQLAGNGGPPEGSLDVLQSWCEKLAEIIWQNRQQIRRAEHLCQQLPIPGPVEEMLAEVNATITDIISALVTSTFIIEKQPPQVLKTQTKFAATVRLLVGGKLNVHMNPPQVKATIISEQQAKSLLKNENTRNDYSGEILNNCCVMEYHQATGTLSAHFRNMSLKRIKRSDRRGAESVTEEKFTILFESQFSVGGNELVFQVKTLSLPVVVIVHGSQDNNATATVLWDNAFAEPGRVPFAVPDKVLWPQLCEALNMKFKAEVQSNRGLTKENLVFLAQKLFNNSSSHLEDYSGLSVSWSQFNRENLPGRNYTFWQWFDGVMEVLKKHLKPHWNDGAILGFVNKQQAHDLLINKPDGTFLLRFSDSEIGGITIAWKFDSQERMFWNLMPFTTRDFSIRSLADRLGDLNYLIYVFPDRPKDEVYSKYYTPVPCESATAKAVDGYVKPQIKQVVPEFVNASADAGGGSATYMDQAPSPAVCPQAHYNMYPQNPDSVLDTDGDFDLEDTMDVARRVEELLGRPMDSQWIPHAQS
B7: TAF9 (protein, UniProt Q8VI33 1-264, looked up)
Transcription initiation …: MESGKMASPKSMPKDAQMMAQILKDMGITEYEPRVINQMLEFAFRYVTTILDDAKIYSSHAKKATVDADDVRLAIQCRADQSFTSPPPRDFLLDIARQRNQTPLPLIKPYSGPRLPPDRYCLTAPNYRLKSLQKKAPAPAGRITVPRLSVGSVSSRPSTPTLGTPTPQTMSVSTKVGTPMSLTGQRFTVQMPASQSPAVKASIPATSTVQNVLINPSLIGSKNILITTNMVSQNTAESANALKRKREDDDDDDDDDDDDDYDNM
B8: TADA3L (protein, UniProt O75528 1-432, looked up)
Transcriptional adapter 3: MSELKDCPLQFHDFKSVDHLKVCPRYTAVLARSEDDGIGIEELDTLQLELETLLSSASRRLRVLEAETQILTDWQDKKGDRRFLKLGRDHELGAPPKHGKPKKQKLEGKAGHGPGPGPGRPKSKNLQPKIQEYEFTDDPIDVPRIPKNDAPNRFWASVEPYCADITSEEVRTLEELLKPPEDEAEHYKIPPLGKHYSQRWAQEDLLEEQKDGARAAAVADKKKGLMGPLTELDTKDVDALLKKSEAQHEQPEDGCPFGALTQRLLQALVEENIISPMEDSPIPDMSGKESGADGASTSPRNQNKPFSVPHTKSLESRIKEELIAQGLLESEDRPAEDSEDEVLAELRKRQAELKALSAHNRTKKHDLLRLAKEEVSRQELRQRVRMADNEVMDAFRKIMAARQKKRTPTKKEKDQAWKTLKERESILKLLDG
B9: TAF1C (protein, UniProt Q15572 1-869, looked up)
TATA box-binding …: MDFPSSLRPALFLTGPLGLSDVPDLSFMCSWRDALTLPEAQPQNSENGALHVTKDLLWEPATPGPLPMLPPLIDPWDPGLTARDLLFRGGCRYRKRPRVVLDVTEQISRFLLDHGDVAFAPLGKLMLENFKLEGAGSRTKKKTVVSVKKLLQDLGGHQPWGCPWAYLSNRQRRFSILGGPILGTSVASHLAELLHEELVLRWEQLLLDEACTGGALAWVPGRTPQFGQLVYPAGGAQDRLHFQEVVLTPGDNPQFLGKPGRIQLQGPVRQVVTCTVQGESKALIYTFLPHWLTCYLTPGPFHPSSALLAVRSDYHCAVWKFGKQWQPTLLQAMQVEKGATGISLSPHLPGELAICSRSGAVCLWSPEDGLRQIYRDPETLVFRDSSSWRWADFTAHPRVLTVGDRTGVKMLDTQGPPGCGLLLFRLGAEASCQKGERVLLTQYLGHSSPKCLPPTLHLVCTQFSLYLVDERLPLVPMLKWNHGLPSPLLLARLLPPPRPSCVQPLLLGGQGGQLQLLHLAGEGASVPRLAGPPQSLPSRIDSLPAFPLLEPKIQWRLQERLKAPTIGLAAVVPPLPSAPTPGLVLFQLSAAGDVFYQQLRPQVDSSLRRDAGPPGDTQPDCHAPTASWTSQDTAGCSQWLKALLKVPLAPPVWTAPTFTHRQMLGSTELRREEEEGQRLGVLRKAMARGQLLLQRDLGSLPAAEPPPAPESGLEDKLSERLGEAWAGRGAAWWERQQGRTSEPGRQTRRPKRRTQLSSSFSLSGHVDPSEDTSSPHSPEWPPADALPLPPTTPPSQELTPDACAQGVPSEQRQMLRDYMAKLPPQRDTPGCATTPPHSQASSVRATRSQQHTPVLSSSQPLRKKPRMGF
B10: STAT5A (protein, UniProt P42229 1-794, looked up)
Signal transducer and …: MAGWIQAQQLQGDALRQMQVLYGQHFPIEVRHYLAQWIESQPWDAIDLDNPQDRAQATQLLEGLVQELQKKAEHQVGEDGFLLKIKLGHYATQLQKTYDRCPLELVRCIRHILYNEQRLVREANNCSSPAGILVDAMSQKHLQINQTFEELRLVTQDTENELKKLQQTQEYFIIQYQESLRIQAQFAQLAQLSPQERLSRETALQQKQVSLEAWLQREAQTLQQYRVELAEKHQKTLQLLRKQQTIILDDELIQWKRRQQLAGNGGPPEGSLDVLQSWCEKLAEIIWQNRQQIRRAEHLCQQLPIPGPVEEMLAEVNATITDIISALVTSTFIIEKQPPQVLKTQTKFAATVRLLVGGKLNVHMNPPQVKATIISEQQAKSLLKNENTRNECSGEILNNCCVMEYHQATGTLSAHFRNMSLKRIKRADRRGAESVTEEKFTVLFESQFSVGSNELVFQVKTLSLPVVVIVHGSQDHNATATVLWDNAFAEPGRVPFAVPDKVLWPQLCEALNMKFKAEVQSNRGLTKENLVFLAQKLFNNSSSHLEDYSGLSVSWSQFNRENLPGWNYTFWQWFDGVMEVLKKHHKPHWNDGAILGFVNKQQAHDLLINKPDGTFLLRFSDSEIGGITIAWKFDSPERNLWNLKPFTTRDFSIRSLADRLGDLSYLIYVFPDRPKDEVFSKYYTPVLAKAVDGYVKPQIKQVVPEFVNASADAGGSSATYMDQAPSPAVCPQAPYNMYPQNPDHVLDQDGEFDLDETMDVARHVEELLRRPMDSLDSRLSPPAGLFTSARGSLS

System: HEK293FT cells transfected with TF library
Test: Screening of TF condensates based on fluorescent puncta
Type: cell-based
Conditions: Figure 1B numerical data; TF library screen, one value per transcriptional factor
Method in brief: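 Condensate formation is scored as Alexa 488-labelled puncta after Flag- or GAL4-tag immunostaining of fixed HEK293FT cells expressing individual TFs, with a 12 h glucose-free or glucose-containing culture preceding fixation.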

| Molecule | Z score of condensed fraction |
| --- | --- |
| B1 | -0.4021 |
| B2 | -0.08025 |
| B3 | -0.9569 |
| B4 | 2.809 |
| B5 | -0.8281 |
| B6 | 2.437 |
| B7 | -0.7072 |
| B8 | 1.084 |
| B9 | 0.1895 |
| B10 | -0.6398 |
